Assay results published in patent US20260076602A1, “SYSTEM AND METHOD FOR RAPID ASSESSMENT OF RENAL FUNCTION” (Mayo Foundation for Medical Education and Research, priority 2018, published 2026).

Experiment: Normalized fluorescence from retinal vasculature following IV injection of fluorescent tracer agents (renal clearance)
Conditions: period of 15 min after IV injection, FIG. 12A
Procedure: Normalized fluorescence from retinal vasculature following sequential IV FITC-inulin (green) and Rhod-Dex (500 kD, red) using Phoenix Research Systems Micron imaging may be obtained. Traces synchronized to tail-vein injection (T=0 min). […] Inulin clearance based on traces of normalized fluorescence and previous calibration of Inulin/Rhod-Dex ratio in WT mouse whole blood (insert). Dashed black lines=exponential and linear (insert) curve fits to inulin concentration.
As an example, AK-Fluor®, a fluorescein-based substance, may be used as a first tracer agent that is substantially cleared by healthy renal function and emits a first fluorescent light when excited by a first excitation light. […] In some examples, a AK-Fluor® of 10^−7 g/ml is injected into the patient during an iGFR procedure. […] As shown, in addition to recording the fluorescence signals representing the fluorescent intensities of a first tracer agent and a second tracer agent, a decay rate of the first tracer agent may also be fitted to a first exponential order. […] As another example, FITC-inulin may also be used as a first tracer agent that is substantially cleared by healthy renal function and emits a first fluorescent light when excited by a first excitation light.

FITC-inulin
fluorescence of tracer agent after injection (clearance by healthy renal function): decrease over a period of 15 min after injection
